From PMC10069731 (2023)

Molecular target: SARS-CoV-2 WT RBD (SARS-CoV-2, UniProt P0DTC2)
Assay: BLI

B1: rabbit monoclonal antibody (RmAb) 1H1, IgG (antibody, V domains shown)
VH: QSLEESGGDLVKPGASLTLTCTASGFSFSSGYDMCWVRQAPGKGLEWIACIGTGSSGNIYYASWAKGRFTISKTSSTTVTLQMTSLTAADTATYFCARDDADYAGPDYFNLWGPGTLVTVSS
VL: DIVMTQTPASVSEPVGGTVTIKCQASESISNWLAWYQQKPGQPPKLLIYAAFTLASGVPSRFKGSGSGTQFTLTINGVECADAATYYCQQTYSSRDVDNVFGGGTEVVVK
- Kd: 89.8 pM
